The record followed here is US20220332804A1 (CSL INNOVATION, published 2022).

Holding throughout (assay): SPR, antibody captured, C2 as analyte;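 note: biacore at 37 °C, anti-C2 mAbs held by immobilised goat anti-human IgG, C2 alanine or serine mutants injected, double-referenced sensorgrams fitted to a 1:1 kinetic or steady-state model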
For one experiment, the target named is T1, human C2 A470S (human, UniProt P06681 21-752).
T1 sequence: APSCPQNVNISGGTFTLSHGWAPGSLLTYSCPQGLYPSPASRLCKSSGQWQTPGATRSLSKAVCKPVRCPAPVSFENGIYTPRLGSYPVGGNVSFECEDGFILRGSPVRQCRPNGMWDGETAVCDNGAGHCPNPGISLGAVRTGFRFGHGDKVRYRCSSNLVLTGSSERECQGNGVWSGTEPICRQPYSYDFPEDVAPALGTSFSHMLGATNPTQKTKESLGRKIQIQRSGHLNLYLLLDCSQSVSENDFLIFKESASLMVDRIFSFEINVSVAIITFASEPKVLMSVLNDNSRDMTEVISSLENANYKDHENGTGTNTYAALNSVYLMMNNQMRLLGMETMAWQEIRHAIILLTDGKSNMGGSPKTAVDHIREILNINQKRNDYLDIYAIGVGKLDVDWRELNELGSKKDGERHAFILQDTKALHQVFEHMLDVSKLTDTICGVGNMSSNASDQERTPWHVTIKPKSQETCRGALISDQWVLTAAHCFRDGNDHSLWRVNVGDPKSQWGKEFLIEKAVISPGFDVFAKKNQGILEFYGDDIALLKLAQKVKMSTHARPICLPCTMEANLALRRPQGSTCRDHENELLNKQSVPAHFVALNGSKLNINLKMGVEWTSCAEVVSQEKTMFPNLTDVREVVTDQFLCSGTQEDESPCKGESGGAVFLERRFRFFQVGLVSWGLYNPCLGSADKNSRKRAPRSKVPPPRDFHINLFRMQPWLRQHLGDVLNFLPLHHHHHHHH

For another experiment, the target named is T2, human C2 V448A (human, UniProt P06681 21-752).
T2 sequence: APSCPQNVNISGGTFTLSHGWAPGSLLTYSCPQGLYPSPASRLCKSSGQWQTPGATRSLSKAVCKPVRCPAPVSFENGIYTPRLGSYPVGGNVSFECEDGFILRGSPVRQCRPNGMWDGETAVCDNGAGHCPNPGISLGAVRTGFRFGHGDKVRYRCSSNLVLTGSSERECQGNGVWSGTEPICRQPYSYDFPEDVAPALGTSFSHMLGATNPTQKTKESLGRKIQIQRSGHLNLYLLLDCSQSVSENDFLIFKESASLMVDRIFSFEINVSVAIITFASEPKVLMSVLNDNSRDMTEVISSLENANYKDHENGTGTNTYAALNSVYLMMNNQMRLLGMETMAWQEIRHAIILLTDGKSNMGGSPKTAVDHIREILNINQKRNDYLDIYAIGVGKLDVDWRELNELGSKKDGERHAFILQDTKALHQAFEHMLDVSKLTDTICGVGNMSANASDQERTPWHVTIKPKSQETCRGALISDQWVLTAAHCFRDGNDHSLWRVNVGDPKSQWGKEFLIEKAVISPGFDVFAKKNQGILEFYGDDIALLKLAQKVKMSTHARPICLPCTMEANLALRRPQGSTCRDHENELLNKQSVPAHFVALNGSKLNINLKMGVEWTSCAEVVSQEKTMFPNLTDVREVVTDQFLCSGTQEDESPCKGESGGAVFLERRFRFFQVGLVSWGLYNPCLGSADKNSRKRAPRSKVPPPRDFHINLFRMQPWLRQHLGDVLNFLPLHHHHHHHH

Another experiment concerns the target T3, human C2 Q447A (human, UniProt P06681 21-752).
T3 sequence: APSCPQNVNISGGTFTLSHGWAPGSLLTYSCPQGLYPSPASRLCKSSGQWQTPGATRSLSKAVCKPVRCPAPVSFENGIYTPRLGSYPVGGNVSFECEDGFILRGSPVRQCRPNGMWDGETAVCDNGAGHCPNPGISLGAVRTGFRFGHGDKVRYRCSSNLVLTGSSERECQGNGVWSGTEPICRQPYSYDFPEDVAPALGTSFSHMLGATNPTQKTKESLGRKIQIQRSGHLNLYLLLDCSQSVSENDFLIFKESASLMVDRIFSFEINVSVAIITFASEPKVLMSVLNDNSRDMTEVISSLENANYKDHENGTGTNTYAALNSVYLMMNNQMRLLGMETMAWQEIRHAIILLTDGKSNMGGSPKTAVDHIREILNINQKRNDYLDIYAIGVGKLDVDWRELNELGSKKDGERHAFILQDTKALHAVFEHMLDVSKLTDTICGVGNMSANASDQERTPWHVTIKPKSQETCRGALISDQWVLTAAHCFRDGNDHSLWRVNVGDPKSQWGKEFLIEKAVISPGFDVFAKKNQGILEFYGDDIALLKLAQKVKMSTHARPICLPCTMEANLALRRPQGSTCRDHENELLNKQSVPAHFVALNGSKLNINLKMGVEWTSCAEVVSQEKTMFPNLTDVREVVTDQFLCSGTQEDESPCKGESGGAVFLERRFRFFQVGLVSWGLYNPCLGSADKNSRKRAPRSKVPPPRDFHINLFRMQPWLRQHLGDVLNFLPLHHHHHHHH

B1: RF16-242 (antibody, human IgG4 S228P, lambda, V domains shown)
VH: EVQLLQSGAEVKKPGESLKISCKGSGYSFTSYWIGWVRQMPGKGLEWMGIIYPGDSDTRYSPSFQGQVTISADKSISTAYLQWSSLKASDTAMYYCARRGHYGDYFDYWGQGTLVTVSS
VL: SYELTQPPSVSVSPGQTARITCSGDALPKKYAYWYHQKSGQAPVLVIYEDRRRPSEIPERFSGSSSGTMATLTITGAQVEDEGVYFCYSRDRAGNQRVFGGGTQLTVLG
notes: pH-dependent anti-C2 antibody from a phage display library
The term Kd denotes the equilibrium constant for the complex coming apart. A lower Kd goes with a tighter complex. For B1, the Kd is 5 nM with human C2 A470S, 5 nM in the experiment with human C2 V448A and 26 nM with human C2 Q447A.
